Measurements: article PMC3016346

Legend:
Assay in all cases: two-hybrid; Matchmaker Gal4 system 3 in AH109; beta-galactosidase solution assay with ONPG on lysed cells from liquid culture; activity as percent of p53-TAg (100%); mean of at least three experiments
[1] = target: Sesbania mosaic virus movement protein, Gal4 DNA-binding domain fusion (pGBK T7 MP) (Sesbania mosaic virus)
[2] = target: SeMV MP NΔ49 deletion mutant, Gal4 DNA-binding domain fusion (pGBKT7 NΔ49) (Sesbania mosaic virus)
[3] = target: SeMV MP CΔ38 deletion mutant, Gal4 DNA-binding domain fusion (pGBK T7) (Sesbania mosaic virus)

Substance | beta-galactosidase activity, percent of p53-TAg [1] [%] | beta-galactosidase activity, percent of p53-TAg [2] [%] | beta-galactosidase activity, percent of p53-TAg [3] [%]
Sesbania mosaic virus 10-kDa protein (P10), Gal4 activation domain fusion (pGAD T7 P10) (natural protein) | 97.1 | 14 | –
Sesbania mosaic virus coat protein (CP), Gal4 activation domain fusion (pGAD T7 CP) (natural protein) | 70 | – | –
Sesbania mosaic virus viral protein genome linked (VPg), Gal4 activation domain fusion (pGAD T7 VPg) (natural protein) | 95.5 | – | 83.1
